B1: p53 (other, UniProt P02340 1-390, looked up)
chain: MTAMEESQSDISLELPLSQETFSGLWKLLPPEDILPSPHCMDDLLLPQDVEEFFEGPSEALRVSGAPAAQDPVTETPGPVAPAPATPWPLSSFVPSQKTYQGNYGFHLGFLQSGTAKSVMCTYSPPLNKLFCQLAKTCPVQLWVSATPPAGSRVRAMAIYKKSQHMTEVVRRCPHHERCSDGDGLAPPQHLIRVEGNLYPEYLEDRQTFRHSVVVPYEPPEAGSEYTTIHYKYMCNSSCMGGMNRRPILTIITLEDSSGNLLGRDSFEVRVCACPGRDRRTEEENFRKKEVLCPELPPGSAKRALPTCTSASPPQKKKPLDGEYFTLKIRGRKRFEMFRELNEALELKDAHATEESGDSRAHSSYLKTKKGQSTSRHKKTMVKKVGPDSD
modifications: 35S-methionine label or biotinylated lysine, by its role in the assay
B4: Jun (other, UniProt P05627 1-334, looked up)
chain: MTAKMETTFYDDALNASFLQSESGAYGYSNPKILKQSMTLNLADPVGSLKPHLRAKNSDLLTSPDVGLLKLASPELERLIIQSSNGHITTTPTPTQFLCPKNVTDEQEGFAEGFVRALAELHSQNTLPSVTSAAQPVSGAGMVAPAVASVAGAGGGGGYSASLHSEPPVYANLSNFNPGALSSGGGAPSYGAAGLAFPSQPQQQQQPPQPPHHLPQQIPVQHPRLQALKEEPQTVPEMPGETPPLSPIDMESQERIKAERKRMRNRIAASKCRKRKLERIARLEEKVKTLKAQNSELASTANMLREQVAQLKQKVMNHVNSGCQLMLTQQLQTF
modifications: 35S-methionine label or biotinylated lysine, by its role in the assay
B5: Fos (other, UniProt P01101 1-380, looked up)
chain: MMFSGFNADYEASSSRCSSASPAGDSLSYYHSPADSFSSMGSPVNTQDFCADLSVSSANFIPTVTAISTSPDLQWLVQPTLVSSVAPSQTRAPHPYGLPTQSAGAYARAGMVKTVSGGRAQSIGRRGKVEQLSPEEEEKRRIRRERNKMAAAKCRNRRRELTDTLQAETDQLEDEKSALQTEIANLLKEKEKLEFILAAHRPACKIPDDLGFPEEMSVASLDLTGGLPEASTPESEEAFTLPLLNDPEPKPSLEPVKSISNVELKAEPFDDFLFPASSRPSGSETSRSVPDVDLSGSFYAADWEPLHSNSLGMGPMVTELEPLCTPVVTCTPGCTTYTSSFVFTYPEADSFPSCAAAHRKGSSSNEPSSDSLSSPTLLAL
modifications: 35S-methionine label or biotinylated lysine, by its role in the assay
notes: Crude translation mix, not purified

The series “Jun” has as its target B4. Nature of the series: biotinylated row protein on streptavidin beads, 35S column protein counted.
The target in the series “Fos” is B5. The description is as above.
In the next series the target is luciferase (UniProt P08659 1-550 = luciferase, 35S-methionine label or biotinylated lysine, by its role in the assay). The description is as above.
Sequence of luciferase (P08659 whole entry): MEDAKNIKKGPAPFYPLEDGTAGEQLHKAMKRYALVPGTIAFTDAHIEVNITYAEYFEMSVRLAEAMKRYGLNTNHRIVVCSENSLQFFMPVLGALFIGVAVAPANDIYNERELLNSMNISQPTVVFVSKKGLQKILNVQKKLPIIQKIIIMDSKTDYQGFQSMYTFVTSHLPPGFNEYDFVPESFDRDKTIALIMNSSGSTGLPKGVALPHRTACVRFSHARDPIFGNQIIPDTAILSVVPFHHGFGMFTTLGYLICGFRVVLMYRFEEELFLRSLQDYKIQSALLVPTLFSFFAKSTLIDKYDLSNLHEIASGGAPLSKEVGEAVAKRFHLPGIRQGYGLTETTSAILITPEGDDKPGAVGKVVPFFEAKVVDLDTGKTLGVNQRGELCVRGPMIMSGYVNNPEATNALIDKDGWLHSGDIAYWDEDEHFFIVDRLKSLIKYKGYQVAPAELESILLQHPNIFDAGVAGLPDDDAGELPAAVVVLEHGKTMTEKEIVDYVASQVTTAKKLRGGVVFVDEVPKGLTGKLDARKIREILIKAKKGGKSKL
The next series deals with 1-9H (mouse). Nature of the series: single proteins, rows taken as 35S-labelled and columns as biotinylated, streptavidin beads.
Series [1] deals with the molecule itself. The description is as above.
Another series addresses 1-9F (mouse). The description is as above.
The next series addresses 1-9G (mouse). The description is as above.
The next series has as its target 2-1F (mouse). The description is as above.
A further series concerns the target 2-1G (mouse). The series is described as above.
In the next series the target is 2-1E (mouse). The series is described as above.
Series [2] concerns the target T1, Bpx protein (nucleosome assembly protein homologue) (2-1H) (mouse, UniProt P51860 1-460, limits assumed, 35S-methionine label or biotinylated lysine, by its role in the assay).
T1 construct: also called NAP 1-like protein L2
T1 sequence (looked up): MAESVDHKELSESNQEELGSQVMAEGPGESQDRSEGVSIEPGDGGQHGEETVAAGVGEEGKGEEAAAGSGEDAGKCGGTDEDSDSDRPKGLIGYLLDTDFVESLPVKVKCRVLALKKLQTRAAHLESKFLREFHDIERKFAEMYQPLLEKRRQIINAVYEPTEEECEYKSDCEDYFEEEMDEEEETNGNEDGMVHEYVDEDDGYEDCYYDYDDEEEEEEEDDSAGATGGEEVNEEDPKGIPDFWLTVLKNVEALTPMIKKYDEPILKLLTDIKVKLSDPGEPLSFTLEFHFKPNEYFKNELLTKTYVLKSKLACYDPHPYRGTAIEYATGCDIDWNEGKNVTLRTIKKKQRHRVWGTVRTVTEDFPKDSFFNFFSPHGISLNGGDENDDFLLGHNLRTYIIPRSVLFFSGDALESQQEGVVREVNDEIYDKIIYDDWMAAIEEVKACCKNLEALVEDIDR
The series is described as above.

The target in the next series is 2-10H (mouse). The description is as above.
Series [3] concerns the molecule itself. The series is described as above. This is another data set of the same source.
Series [4] deals with DnaJ-like protein (Hsj2) (2-10E) (mouse, UniProt P63037 1-397, 35S-methionine label or biotinylated lysine, by its role in the assay). Described as above.
For the next series, the target named is 2-10G (mouse). Described as above.
Series [5] deals with the molecule itself. As to the kind of experiment: biotinylated row protein on streptavidin beads, 35S column protein counted.
In the series “p53” the target is B1. Described as above.
A further series addresses SV40 large T (SV40, UniProt P03070 1-708). Described as above.

Like-named read-outs stand apart in the source and are kept apart here.

B1: the “RI (c.p.m.)” value with Jun stood at 206 c.p.m; with Fos it was 232 c.p.m; with luciferase, 154 c.p.m.

B2: Caspase 6 (1-9E) (enzyme, mouse, UniProt O08738 1-276, looked up)
chain: MTETDGFYKSREVFDPAEQYKMDHKRRGVALIFNHERFFWHLTLPERRGTNADRDNLTRRFSDLGFEVKCFNDLRAEELLLKIHEVSTSSHIDADCFICVFLSHGEGNHVYAYDAKIEIQTLTGLFKGDKCQSLVGKPKIFIIQACRGSQHDVPVVPLDMVDHQTDKLDNVTQVDAASVYTLPAGADFLMCYSVAEGYYSHRETVNGSWYIQDLCEMLARYGSSLEFTELLTLVNRKVSQRRVDFCKDPDAIGKKQVPCFASMLTKKLHFCPKPSK
modifications: 35S-methionine label or biotinylated lysine, by its role in the assay
In the case of B2, the “RI (cpm)” value with 1-9H amounted to 37 cpm; in series [1], 225 cpm; in the series with 1-9F, 32 cpm; with 1-9G, 36 cpm.

B3: MB20 protein (function unknown, 2-10F) (other, mouse, UniProt Q794H2 1-544, looked up)
chain: MAEADPKMVTEPGAHGVAEEAMASTACDSGDESDSNSSSSTNSCSSSGSSSSGSSSSSSSSSSSSSSSSSSSSGSSGSSSNGSHLNRKKRVPEPSRRAQRRPSGKLFLDKLPQAVRNRVQALRNIQNECDKVDTLFLRAIHDLERKYAELNKPLYDKRFQIINAEYEPTEEECEWNSEEEFSGDEEMQDDTPNEMPPLEGEEEEESCNEKAEVKEEGTHVPEEVPEAKVEEEEAPKETPEVKTEEKDIPKEGAEEKAEEQESSKEIPEVKGEEKADSTDCIDIAPEEKEDVKEVTQANTENKDQPTEEFTPRAPAREAQKRVPETRPEEGVNIKRARKGKPKKEDPKGIPDYWLTVLKNVDKLGPMIQKCDEPILKFLSDVSLKFSNPGQPIGYTFEFHFLPNPYFRNELLMKTYIIRSKPDHYDPFFAWGWEIEECKGCKIDWRRGKDVTVTTTRSRPGITGEIEVQPRVVPNASFFNFFSPPEIPLIGKLEPREDAILDEDFEIGQILHDNVILKSIYYFTGEINDPYYHDFRDYGNRKYYK
modifications: 35S-methionine label or biotinylated lysine, by its role in the assay
notes: also called NAP1-like protein L3
Consider B3, for which the “RI (cpm)” value in the series with 2-1F stood at 60 cpm; with 2-1G, 72 cpm; in the series with 2-1E, 60 cpm; in series [2] it was 736 cpm; in the series with 2-10H, 98 cpm; in series [3], 168 cpm. Further, the entries for the “RI (cpm)” value (in [4]; in the series with 2-10G) were 87 cpm and 67 cpm, respectively.

For B4, the “RI (c.p.m.)” value in series [5] was 204 c.p.m; in the series with Fos it was 707 c.p.m; in the series with p53 it was 187 c.p.m; with luciferase, 131 c.p.m; in the series with SV40 large T, 176 c.p.m.

For B5, the “RI (c.p.m.)” value with Jun was determined as 675 c.p.m; in [5] it was 177 c.p.m; with p53, 169 c.p.m; with luciferase, 172 c.p.m; with SV40 large T it was 156 c.p.m.

The values above are taken from patent US7122382 (RIKEN, dated 2006).
